The values that follow come from patent US20250122278A1, “ANTI-INTERLEUKIN-9 ANTIBODY AND USE THEREOF” (GUANGDONG KEGUANDA PHARMACEUTICAL TECHNOLOGY CO., LTD., priority 2022, published 2025).

The target of experiment [1] is T1, IL-9-His recombinant protein (UniProt P15248 19-144).
T1 construct: range 19-144; used as coating antigen in the ELISAs; also called IL9 (19-144)-His; not shown: His tag, C-terminal by the vector name
Kind of experiment: ELISA on coated IL-9-His, OD450; unit taken from the x axis, the table prints none.

Experiment [2] has as its target T2, biotin-conjugated IL-9-Fc (Biotin-IL-9-Fc) (UniProt P15248 19-144, biotin-conjugated (sites not given)).
T2 construct: range 19-144; also called Fc-IL-9 recombinant protein; Fc-IL-9; not shown: Fc tag (Fc2 in the vector name pLVX-Fc2-IL9 (19-144)-Puro)
As to the kind of experiment: flow cytometry blocking assay (IL-9-IL-9R blocking determination): serially diluted antibody against the binding of Biotin-IL-9-Fc to 293-IL-9R cells (IL-9R), MFI; unit taken from the x axis, the table prints none.

T2 sequence (P15248 19-144 limits assumed, form in doubt): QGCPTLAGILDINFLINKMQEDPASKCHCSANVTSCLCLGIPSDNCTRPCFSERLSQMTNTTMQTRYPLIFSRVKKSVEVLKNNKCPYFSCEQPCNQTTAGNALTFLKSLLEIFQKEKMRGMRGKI
T1 sequence (P15248 19-144 limits assumed, form in doubt): as above

B1: 7F3com (antibody, V domains shown)
VH: QVQLVQSGAEVKKPGSSVKVSCKASGGTFSYYWIEWVRQAPGQGLEWMGEILPGSGTTNPNEKFKGRVTITADESTSTAYMELSSLRSEDTAVYYCARADYYGSDYVKFDYWGQGTLVTVSS
VL: DIQMTQSPSSLSASVGDRVTITCKASQHVITHVTWYQQKPGKAPKLLIYGTSYSYSGVPSRFSGSGSGTDFTLTISSLQPEDFATYYCQQFYEYPLTFGGGTKVEIK
notes: also called IL-9 positive control antibody; IL-9 positive antibody
On to B1, for which the EC50 in experiment [1] amounted to 0.0459 µg/mL; in experiment [2], 10.2 µg/mL.
